This is an account of results in the supplement of paper PMC10126150.

For this data set, the system named is ATP. Nature of the data set: switch fluorescence ratio, 500 uM ATP over buffer (Cy3 cluster intensity, sum of 5 cycles each) (fold (ratio)); higher = stronger signal-on switching upon ATP binding; sequences stand for … in TCGTCGGCAGCGTCAGATGTGTATAAGAGACAGTTTTTTTTTTTTTTTTTTTTTTTTT…TC. Conditions: aptamer strand: ATP DNA aptamer (quencher-CACCTGGGGGAGTATTGCGGAGGAAGG + anchor), 100 nM annealed; ATP concentration: 500 uM. A digest of the protocol:
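Imaging in selection buffer was followed by imaging after 15 min with 500 uM ATP at 22 °C, for Cy3-labelled switching-strand clusters annealed to 100 nM quencher-labelled ATP aptamer on a modified Illumina MiSeq flow-cell. Five of these buffer/ATP cycles ran, separated by NaOH stripping and re-annealing. The fluorescence ratio per cluster is summed target-cycle over summed buffer-cycle Cy3 intensity, averaged per switch-domain sequence; clusters outside 100-1000 RFU were removed.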

± gives the standard deviation of the averaged measurements.
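Also: ATP exposure 15 min at 22 °C before imaging.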

TTTCAGTGCT: the switch fluorescence ratio was found to be 0.9947 ± 0.005.
For TTTCATATGC, the switch fluorescence ratio was 0.995 ± 0.073.
For TTTCATCTTT, the switch fluorescence ratio stood at 1.04 ± 0.078.
In the case of TTTCATGATC, the switch fluorescence ratio is 1 ± 0.026.
For TTTCATGGCT, the switch fluorescence ratio was determined as 1.01 ± 0.035.
In the case of TTTCATTCTC, the switch fluorescence ratio was 0.991 ± 0.01.
On to TTTCCATGGA, for which the switch fluorescence ratio is 0.984 ± 0.029.
As to TTTCCATTAA, the switch fluorescence ratio was determined as 1 ± 0.044.
Take TTTCCCCAAT: the switch fluorescence ratio is 1.07 ± 0.063.
The value for TTTCCCTGTT was 1.05 ± 0.076.
With TTTCCCTTCT, the switch fluorescence ratio was 1.05 ± 0.06.
The value for TTTCCGACGG was 1.57 ± 0.79; that for TTTCCGGACG was 1.02 ± 0.037; that for TTTCCGGCGG was 1.12 ± 0.09.
In the case of TTTCCGGGGA, the switch fluorescence ratio came to 1.18 ± 0.29.
Take TTTCCTATAA: the switch fluorescence ratio turned out to be 1.13 ± 0.21.
For TTTCGATGGT, the switch fluorescence ratio is 0.959 ± 0.019.
As to TTTCGCCATA, the switch fluorescence ratio amounted to 2.39 ± 2.
On to TTTCGCTC, for which the switch fluorescence ratio was found to be 1.06 ± 0.019.
Consider TTTCGCTCGT, for which the switch fluorescence ratio is 0.9628 ± 0.003.
Consider TTTCGGACGC, for which the switch fluorescence ratio amounted to 1.35 ± 0.33.
For TTTCGGAGGG, the switch fluorescence ratio came out at 0.982 ± 0.034.
On to TTTCGGAGTT, for which the switch fluorescence ratio was found to be 1.05 ± 0.071.
As for TTTCGGATAA, the switch fluorescence ratio is 1.02 ± 0.056.
With TTTCGGATGC, the switch fluorescence ratio was found to be 1.22 ± 0.26.
As for TTTCGGATTC, the switch fluorescence ratio worked out at 1.08 ± 0.059.
Turning to TTTCGGGACC, the switch fluorescence ratio is 1.04 ± 0.031.
The value for TTTCGGGACG was 0.987 ± 0.035; that for TTTCGGGCAG was 1.02 ± 0.037; that for TTTCGGGGAT was 1.03 ± 0.038.
As for TTTCGGGTAG, the switch fluorescence ratio was 1.011 ± 0.0014.
As to TTTCGGTCTG, the switch fluorescence ratio was determined as 1.006 ± 0.0075.
Regarding TTTCGGTGCT, the switch fluorescence ratio was 1.03 ± 0.049.
For the sequence TTTCGGTTAA, the switch fluorescence ratio stood at 1.09 ± 0.11.
Take TTTCGGTTCA: the switch fluorescence ratio was 1.037 ± 0.0044.
With TTTCGTAATT, the switch fluorescence ratio worked out at 1 ± 0.024.
As for TTTCGTATAC, the switch fluorescence ratio amounted to 2.1 ± 0.041.
As to TTTCGTCCTT, the switch fluorescence ratio amounted to 1.18 ± 0.014.
The value for TTTCGTCGAA was 1.017 ± 0.01; that for TTTCGTGCGG was 1 ± 0.015.
The value for TTTCGTGTGT was 0.97 ± 0.0097.
On to TTTCGTTCAT, for which the switch fluorescence ratio is 1.033 ± 0.0078.
Turning to TTTCGTTCTC, the switch fluorescence ratio was 1.008 ± 0.0045.
For the sequence TTTCGTTGAA, the switch fluorescence ratio worked out at 0.9964 ± 0.0069.
With TTTCTAACGT, the switch fluorescence ratio was 1.001 ± 0.0026.
With TTTCTAAGGG the figure was 1.07 ± 0.061; with TTTCTAAGTC, 0.9559 ± 0.006; with TTTCTAATTT, 1.02 ± 0.015.
As for TTTCTACGTA, the switch fluorescence ratio was determined as 1.13 ± 0.14.
With TTTCTAGACA the figure was 1.02 ± 0.021.
With TTTCTAGTCT the figure was 0.935 ± 0.0085; with TTTCTATGGA, 1.0135 ± 0.0006; with TTTCTATTTT, 1.02 ± 0.066.
On to TTTCTCAGAG, for which the switch fluorescence ratio turned out to be 0.995 ± 0.016.
With TTTCTCCGGT, the switch fluorescence ratio turned out to be 1.53 ± 0.39.
TTTCTCGGCA: the switch fluorescence ratio turned out to be 1.44 ± 0.42.
For TTTCTCTGAG, the switch fluorescence ratio came out at 1.04 ± 0.033.
As for TTTCTGACGT, the switch fluorescence ratio amounted to 1.09 ± 0.057.
Consider TTTCTGGGTC, for which the switch fluorescence ratio was found to be 1.02 ± 0.068.
As to TTTCTGTAAG, the switch fluorescence ratio was found to be 1.01 ± 0.036.
For the sequence TTTCTGTGGA, the switch fluorescence ratio was determined as 0.9892 ± 0.0091.
The value for TTTCTTAGAG was 0.992 ± 0.038.
In the case of TTTCTTAGGT, the switch fluorescence ratio was determined as 1.03 ± 0.014.
In the case of TTTCTTAGTT, the switch fluorescence ratio stood at 1.04 ± 0.017.
With TTTCTTCGCT, the switch fluorescence ratio was 1.01 ± 0.046.
With TTTCTTCTCA, the switch fluorescence ratio is 1.01 ± 0.024.
For TTTCTTTATC, the switch fluorescence ratio amounted to 0.974 ± 0.017.
Consider TTTCTTTCTC, for which the switch fluorescence ratio was determined as 1.02 ± 0.026.
For the sequence TTTCTTTTTT, the switch fluorescence ratio was 1 ± 0.024.
Regarding TTTGAAAACG, the switch fluorescence ratio was 1.02 ± 0.033.
As to TTTGAAAGAA, the switch fluorescence ratio is 0.9779 ± 0.0054.
TTTGAAAGTT: the switch fluorescence ratio came to 1.01 ± 0.015.
As for TTTGAAATAC, the switch fluorescence ratio was found to be 2.2 ± 0.025.
For TTTGAACGCT, the switch fluorescence ratio turned out to be 1.06 ± 0.015.
TTTGAAGACA: the switch fluorescence ratio stood at 0.991 ± 0.028.
With TTTGAAGACT the figure was 0.98 ± 0.028.
With TTTGAAGGAT the figure was 1.29 ± 0.35.
As to TTTGAAGTCA, the switch fluorescence ratio was determined as 1 ± 0.022.
TTTGAATTCG: the switch fluorescence ratio stood at 1.009 ± 0.0022.
For the sequence TTTGAATTTT, the switch fluorescence ratio is 0.998 ± 0.024.
Turning to TTTGACAGGA, the switch fluorescence ratio came out at 1.06 ± 0.057.
As to TTTGACATGT, the switch fluorescence ratio amounted to 0.975 ± 0.038.
The value for TTTGACGCGC was 1.16 ± 0.13; that for TTTGACGGGA was 1.01 ± 0.012; that for TTTGACGGTA was 1.09 ± 0.016.
Consider TTTGACTAGG, for which the switch fluorescence ratio amounted to 1.01 ± 0.038.
The value for TTTGACTTCA was 1.03 ± 0.018; that for TTTGACTTTT was 0.994 ± 0.028; that for TTTGAGAAGC was 0.992 ± 0.026.
With TTTGAGGAAG the figure was 1.01 ± 0.022; with TTTGAGGACT, 0.992 ± 0.025.
In the case of TTTGAGGCCA, the switch fluorescence ratio came out at 1.04 ± 0.061.
Turning to TTTGAGGGGG, the switch fluorescence ratio stood at 1.01 ± 0.066.
With TTTGAGGTGA, the switch fluorescence ratio was 1.04 ± 0.07.
As to TTTGAGTCGG, the switch fluorescence ratio came out at 0.957 ± 0.0034.
With TTTGAGTTGT the figure was 0.962 ± 0.035; with TTTGATAGT, 1 ± 0.021.
On to TTTGATATTT, for which the switch fluorescence ratio is 1.11 ± 0.22.
The value for TTTGATCAAG was 1.021 ± 0.008.
The value for TTTGATCGGA was 0.965 ± 0.062; that for TTTGATCTAT was 0.989 ± 0.028; that for TTTGATCTCG was 1.0054 ± 0.00071.
For TTTGATCTGC, the switch fluorescence ratio stood at 0.961 ± 0.031.
For the sequence TTTGATGATA, the switch fluorescence ratio was determined as 0.981 ± 0.014.
Turning to TTTGATGCAT, the switch fluorescence ratio stood at 1.03 ± 0.026.
With TTTGATGCGT the figure was 1.018 ± 0.0095.
As to TTTGATTTGC, the switch fluorescence ratio was 0.961 ± 0.042.
Consider TTTGATTTTC, for which the switch fluorescence ratio worked out at 0.976 ± 0.049.
On to TTTGCAAGGG, for which the switch fluorescence ratio came out at 1.81 ± 1.2.
Regarding TTTGCATCTA, the switch fluorescence ratio was found to be 1.0306 ± 0.00072.
With TTTGCCAGTT the figure was 0.9847 ± 0.0019.
As for TTTGCCCCCT, the switch fluorescence ratio came to 1.04 ± 0.051.
With TTTGCCCTGG, the switch fluorescence ratio was 1.1 ± 0.08.
The value for TTTGCCGGG was 1.02 ± 0.0019; that for TTTGCCGGGA was 1.01 ± 0.019; that for TTTGCCGGGT was 0.998 ± 0.046.
TTTGCCTTTT: the switch fluorescence ratio came out at 1 ± 0.042.
With TTTGCGAGGG, the switch fluorescence ratio was 1.01 ± 0.018.
In the case of TTTGCGCTTT, the switch fluorescence ratio is 1.1 ± 0.084.
TTTGCGGAAA: the switch fluorescence ratio was determined as 1.01 ± 0.023.
